Key:
[1] = target: T1, phytochrome A supressor spa1 (SPA1) (Arabidopsis thaliana); assay: TAP-MS, C-terminal GS tag
T1 sequence (Q9SYX2 1-1029, looked up): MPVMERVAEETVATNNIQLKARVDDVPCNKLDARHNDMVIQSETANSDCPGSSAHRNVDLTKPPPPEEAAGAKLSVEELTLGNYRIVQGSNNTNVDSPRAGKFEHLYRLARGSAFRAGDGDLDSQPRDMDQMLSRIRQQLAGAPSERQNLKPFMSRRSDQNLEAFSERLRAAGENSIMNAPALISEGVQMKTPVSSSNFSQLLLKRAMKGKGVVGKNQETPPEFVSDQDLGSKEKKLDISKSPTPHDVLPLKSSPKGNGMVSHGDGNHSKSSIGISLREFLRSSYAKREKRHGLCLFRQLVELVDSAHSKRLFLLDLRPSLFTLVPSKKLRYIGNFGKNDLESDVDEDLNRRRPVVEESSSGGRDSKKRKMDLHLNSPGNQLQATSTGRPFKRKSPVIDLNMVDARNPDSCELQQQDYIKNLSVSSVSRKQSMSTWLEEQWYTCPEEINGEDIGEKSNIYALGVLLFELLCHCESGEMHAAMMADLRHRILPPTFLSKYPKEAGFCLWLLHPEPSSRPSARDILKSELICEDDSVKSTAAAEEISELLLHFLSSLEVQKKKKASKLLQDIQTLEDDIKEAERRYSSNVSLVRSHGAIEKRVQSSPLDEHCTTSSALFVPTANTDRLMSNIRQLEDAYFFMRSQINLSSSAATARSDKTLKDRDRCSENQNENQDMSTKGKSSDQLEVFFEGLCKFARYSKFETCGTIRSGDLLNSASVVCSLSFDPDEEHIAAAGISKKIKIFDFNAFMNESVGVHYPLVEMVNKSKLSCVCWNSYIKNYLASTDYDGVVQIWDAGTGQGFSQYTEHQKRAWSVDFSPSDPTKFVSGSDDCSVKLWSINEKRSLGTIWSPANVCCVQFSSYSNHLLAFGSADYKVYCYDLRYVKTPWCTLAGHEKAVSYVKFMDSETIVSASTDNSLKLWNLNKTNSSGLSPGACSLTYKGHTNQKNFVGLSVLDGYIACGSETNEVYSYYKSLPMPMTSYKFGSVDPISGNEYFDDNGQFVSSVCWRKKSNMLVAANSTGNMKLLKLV

[2] = target: chromatin remodeling protein (SYD) (Arabidopsis thaliana); assay: TAP-MS, C-terminal GS tag
[3] = target: T2, actin-related protein 7 (ARP7) (Arabidopsis thaliana); assay: TAP-MS, C-terminal GS tag
T2 sequence (Q8L4Y5 1-363, looked up): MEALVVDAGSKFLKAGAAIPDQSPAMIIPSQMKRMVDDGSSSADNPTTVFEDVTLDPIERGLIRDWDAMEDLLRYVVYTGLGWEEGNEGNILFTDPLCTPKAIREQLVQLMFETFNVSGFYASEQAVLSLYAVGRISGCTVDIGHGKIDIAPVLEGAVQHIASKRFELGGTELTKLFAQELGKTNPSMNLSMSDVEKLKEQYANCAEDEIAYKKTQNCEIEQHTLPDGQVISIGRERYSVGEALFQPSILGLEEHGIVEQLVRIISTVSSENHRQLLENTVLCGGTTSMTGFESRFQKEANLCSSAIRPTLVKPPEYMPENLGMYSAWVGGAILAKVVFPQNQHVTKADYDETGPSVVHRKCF

[4] = target: importin alpha-1 subunit (IMPA4) (Arabidopsis thaliana); assay: TAP-MS, C-terminal GS tag
[5] = target: SNF2 protein (BRM) (Arabidopsis thaliana); assay: TAP-MS, C-terminal GS tag
[6] = target: SWIB complex BAF60b domain-containing protein (Swp73B) (Arabidopsis thaliana); assay: TAP-MS, C-terminal GS tag
[7] = target: expressed protein, similar to At3g03460 (AT5G17510) (Arabidopsis thaliana); assay: TAP-MS, C-terminal GS tag
[8] = target: splicing factor (AT3G55220) (Arabidopsis thaliana); assay: TAP-MS, C-terminal GS tag
[9] = target: homeobox-leucine zipper protein (HB-2)/HD-ZIP protein (Arabidopsis thaliana); assay: TAP-MS, C-terminal GS tag
[10] = target: 26S proteasome regulatory subunit (RPN9) (Arabidopsis thaliana); assay: TAP-MS, C-terminal GS tag
[11] = target: importin alpha-2 (IMPA2) (Arabidopsis thaliana); assay: TAP-MS, C-terminal GS tag
[12] = target: importin alpha-1 subunit (IMPA1) (Arabidopsis thaliana); assay: TAP-MS, C-terminal GS tag
[13] = target: G2484-1, agenet domain-containing protein (Arabidopsis thaliana); assay: TAP-MS, C-terminal GS tag
[14] = target: T3, SWIRM domain-containing protein (SWI3C) (Arabidopsis thaliana); assay: TAP-MS, C-terminal GS tag
T3 sequence (Q9XI07 1-807, looked up): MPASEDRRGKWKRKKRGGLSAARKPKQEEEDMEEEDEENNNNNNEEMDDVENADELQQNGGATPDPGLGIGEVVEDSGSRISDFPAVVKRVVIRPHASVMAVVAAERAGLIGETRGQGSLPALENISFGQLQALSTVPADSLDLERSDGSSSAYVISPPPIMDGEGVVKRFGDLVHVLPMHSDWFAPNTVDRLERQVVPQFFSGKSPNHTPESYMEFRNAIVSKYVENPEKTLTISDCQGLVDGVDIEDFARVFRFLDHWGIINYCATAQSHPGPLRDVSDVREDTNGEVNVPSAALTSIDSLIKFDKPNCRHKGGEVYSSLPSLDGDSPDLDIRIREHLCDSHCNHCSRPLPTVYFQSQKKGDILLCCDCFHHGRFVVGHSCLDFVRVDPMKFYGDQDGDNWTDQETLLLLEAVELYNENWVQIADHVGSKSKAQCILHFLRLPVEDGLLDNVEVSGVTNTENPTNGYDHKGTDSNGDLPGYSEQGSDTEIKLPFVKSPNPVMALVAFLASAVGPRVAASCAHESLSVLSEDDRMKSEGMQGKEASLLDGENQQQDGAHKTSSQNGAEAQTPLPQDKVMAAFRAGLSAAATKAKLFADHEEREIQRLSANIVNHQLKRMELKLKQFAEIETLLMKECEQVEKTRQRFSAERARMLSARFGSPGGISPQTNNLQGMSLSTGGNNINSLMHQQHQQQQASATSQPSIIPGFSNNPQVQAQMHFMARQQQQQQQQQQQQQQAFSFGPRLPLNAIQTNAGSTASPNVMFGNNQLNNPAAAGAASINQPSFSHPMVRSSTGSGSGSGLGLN

[15] = target: expressed protein (AT5G13030) (Arabidopsis thaliana); assay: TAP-MS, C-terminal GS tag
[16] = target: importin beta-2 (Arabidopsis thaliana); assay: TAP-MS, C-terminal GS tag
[17] = target: T4, actin-related protein 4 (ARP4) (Arabidopsis thaliana); assay: TAP-MS, C-terminal GS tag
T4 sequence (Q84M92 1-441, looked up): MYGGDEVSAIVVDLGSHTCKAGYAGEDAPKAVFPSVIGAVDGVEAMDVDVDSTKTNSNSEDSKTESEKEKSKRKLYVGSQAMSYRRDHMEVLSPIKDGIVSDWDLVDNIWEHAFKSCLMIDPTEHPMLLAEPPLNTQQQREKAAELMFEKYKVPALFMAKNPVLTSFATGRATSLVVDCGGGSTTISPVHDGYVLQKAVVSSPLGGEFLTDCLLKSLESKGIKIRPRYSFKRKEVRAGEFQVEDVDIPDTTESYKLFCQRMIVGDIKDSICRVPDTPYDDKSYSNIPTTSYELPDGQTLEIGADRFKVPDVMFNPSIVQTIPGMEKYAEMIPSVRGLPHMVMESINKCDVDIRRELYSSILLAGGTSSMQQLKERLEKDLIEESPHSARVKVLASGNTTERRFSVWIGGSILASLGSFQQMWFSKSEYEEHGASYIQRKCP

[18] = target: expressed protein, similar to DAG protein (AT3G15000) (Arabidopsis thaliana); assay: TAP-MS, C-terminal GS tag
[19] = target: DNA-binding bromodomain-containing protein (AT1G20670) (Arabidopsis thaliana); assay: TAP-MS, C-terminal GS tag
[20] = target: expressed protein, similar to At4g22320 (AT5G55210) (Arabidopsis thaliana); assay: TAP-MS, C-terminal GS tag
[21] = target: T2, actin-related protein 7 (ARP7) (Arabidopsis thaliana); assay: TAP-MS, N-terminal GS tag
[22] = target: T5, TAF14B, GAS41 (Arabidopsis thaliana); assay: TAP-MS, N-terminal GS tag
T5 sequence (Q9FH40 1-268, looked up): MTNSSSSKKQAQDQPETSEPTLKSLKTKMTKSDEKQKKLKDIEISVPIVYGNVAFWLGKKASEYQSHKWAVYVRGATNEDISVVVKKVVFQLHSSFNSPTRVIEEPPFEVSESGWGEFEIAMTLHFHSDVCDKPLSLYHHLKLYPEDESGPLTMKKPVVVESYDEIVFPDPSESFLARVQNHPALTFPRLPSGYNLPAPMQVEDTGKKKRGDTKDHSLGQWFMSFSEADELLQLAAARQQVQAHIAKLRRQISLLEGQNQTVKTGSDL

[23] = target: PHD finger protein (AT1G54390) (Arabidopsis thaliana); assay: TAP-MS, N-terminal GS tag
[24] = target: T6, SE (SERRATE) (Arabidopsis thaliana); assay: TAP-MS, N-terminal GS tag
T6 sequence (Q9ZVD0 1-720, looked up): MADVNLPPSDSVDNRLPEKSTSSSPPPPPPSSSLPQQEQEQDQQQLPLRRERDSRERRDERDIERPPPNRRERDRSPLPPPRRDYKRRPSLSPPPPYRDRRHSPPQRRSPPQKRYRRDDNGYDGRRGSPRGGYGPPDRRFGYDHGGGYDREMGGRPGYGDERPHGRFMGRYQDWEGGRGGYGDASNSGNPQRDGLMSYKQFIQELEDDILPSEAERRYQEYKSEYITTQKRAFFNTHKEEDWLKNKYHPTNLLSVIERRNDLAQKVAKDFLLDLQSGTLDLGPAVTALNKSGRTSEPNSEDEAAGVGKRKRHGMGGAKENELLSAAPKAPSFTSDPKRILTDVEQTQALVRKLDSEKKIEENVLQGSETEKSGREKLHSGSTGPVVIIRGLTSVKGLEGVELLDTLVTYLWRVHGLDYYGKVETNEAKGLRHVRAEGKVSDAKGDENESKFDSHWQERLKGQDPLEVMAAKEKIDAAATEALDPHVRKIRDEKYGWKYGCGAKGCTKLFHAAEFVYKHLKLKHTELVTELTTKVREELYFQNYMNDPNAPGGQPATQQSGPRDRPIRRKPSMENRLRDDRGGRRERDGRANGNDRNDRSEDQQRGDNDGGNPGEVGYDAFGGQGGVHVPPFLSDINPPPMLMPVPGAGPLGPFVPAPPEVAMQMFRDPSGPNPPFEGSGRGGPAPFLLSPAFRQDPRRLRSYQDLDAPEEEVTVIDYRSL

[25] = target: chaperonin (AT5G26360) (Arabidopsis thaliana); assay: TAP-MS, N-terminal GS tag
[26] = target: protein coding (AT5G14240) (Arabidopsis thaliana); assay: TAP-MS, N-terminal GS tag

B1: AN3-GS (protein, UniProt Q8L8A5 1-210, looked up)
GRF1-interacting factor 1: MQQHLMQMQPMMAGYYPSNVTSDHIQQYLDENKSLILKIVESQNSGKLSECAENQARLQRNLMYLAAIADSQPQPPSVHSQYGSAGGGMIQGEGGSHYLQQQQATQQQQMTQQSLMAARSSMLYAQQQQQQQPYATLQHQQLHHSQLGMSSSSGGGGSSGLHILQGEAGGFHDFGRGKPEMGSGGGGEGRGGSSGDGGETLYLKSSDDGN
modifications: C-terminal GS tag
**Q.** With B1 as the binder, how does the C-GS (times co-purified) [1] read?
**A.** 1

**Q.** What about the C-GS (times co-purified) [2] of the same binder?
**A.** 4

**Q.** What about the C-GS (times co-purified) [3] of the same binder?
**A.** 4

**Q.** And the C-GS (times co-purified) [4]?
**A.** 1

**Q.** And the C-GS (times co-purified) [5]?
**A.** 4

**Q.** What about the C-GS (times co-purified) [6] of the same binder?
**A.** 4

**Q.** What about the C-GS (times co-purified) [7] of the same binder?
**A.** 3

**Q.** And the C-GS (times co-purified) [8]?
**A.** 1

**Q.** And the C-GS (times co-purified) [9]?
**A.** 1

**Q.** And the C-GS (times co-purified) [10]?
**A.** 1

**Q.** And the C-GS (times co-purified) [11]?
**A.** 4

**Q.** What about the C-GS (times co-purified) [12] of the same binder?
**A.** 4

**Q.** What about the C-GS (times co-purified) [13] of the same binder?
**A.** 4

**Q.** And the C-GS (times co-purified) [14]?
**A.** 4

**Q.** And the C-GS (times co-purified) [15]?
**A.** 1

**Q.** What about the C-GS (times co-purified) [16] of the same binder?
**A.** 4

**Q.** And the C-GS (times co-purified) [17]?
**A.** 4

**Q.** And the C-GS (times co-purified) [18]?
**A.** 3

**Q.** And the C-GS (times co-purified) [19]?
**A.** 1

**Q.** And the C-GS (times co-purified) [20]?
**A.** 4

B2: GS-ARP4 (protein, UniProt Q84M92 1-441, looked up)
Actin-related protein 4: MYGGDEVSAIVVDLGSHTCKAGYAGEDAPKAVFPSVIGAVDGVEAMDVDVDSTKTNSNSEDSKTESEKEKSKRKLYVGSQAMSYRRDHMEVLSPIKDGIVSDWDLVDNIWEHAFKSCLMIDPTEHPMLLAEPPLNTQQQREKAAELMFEKYKVPALFMAKNPVLTSFATGRATSLVVDCGGGSTTISPVHDGYVLQKAVVSSPLGGEFLTDCLLKSLESKGIKIRPRYSFKRKEVRAGEFQVEDVDIPDTTESYKLFCQRMIVGDIKDSICRVPDTPYDDKSYSNIPTTSYELPDGQTLEIGADRFKVPDVMFNPSIVQTIPGMEKYAEMIPSVRGLPHMVMESINKCDVDIRRELYSSILLAGGTSSMQQLKERLEKDLIEESPHSARVKVLASGNTTERRFSVWIGGSILASLGSFQQMWFSKSEYEEHGASYIQRKCP
modifications: N-terminal GS tag
**Q.** For B2, which N-GS (times co-purified) [21] is on record?
**A.** 2

**Q.** And the N-GS (times co-purified) [22]?
**A.** 2

**Q.** What about the N-GS (times co-purified) [23] of the same binder?
**A.** 1

**Q.** And the N-GS (times co-purified) [24]?
**A.** 1

**Q.** And the N-GS (times co-purified) [25]?
**A.** 2

**Q.** And the N-GS (times co-purified) [26]?
**A.** 2

Reference: patent US20120324602A1
